Results reported in publication PMC12416549 (2024).
Numbering of substitutions follows the chain as printed. Names and notes keep the numbering of the source.

B1: E45G (designed binder)
chain: SMEEEVEKAAKEYEKKKKEAIEKHLEKLKAKDKEAAERFLKELEGAAKEYAKDEAKTMSEEEAKRRAKKYKEKVLLSELSEEEQKEIKEAEEKLVRTILKYVEEAAK
B2: D32V (designed binder)
chain: B1 chain with D32V, G45E
B3: K41Q (designed binder)
chain: B1 chain with K41Q, G45E
B4: Y70P (designed binder)
chain: B1 chain with G45E, Y70P
B5: E4K (designed binder)
chain: B1 chain with E4K, G45E
B6: H24A (designed binder)
chain: B1 chain with H24A, G45E
B7: E89H (designed binder)
chain: B1 chain with G45E, E89H
B8: L75N (designed binder)
chain: B1 chain with G45E, L75N
B9: E78R (designed binder)
chain: B1 chain with G45E, E78R
B10: A46R (designed binder)
chain: B1 chain with G45E, A46R
B11: E61I (designed binder)
chain: B1 chain with G45E, E61I
B12: R66S (designed binder)
chain: B1 chain with G45E, R66S
B13: L75A (designed binder)
chain: B1 chain with G45E, L75A
B14: T97G (designed binder)
chain: B1 chain with G45E, T97G
B15: E4S (designed binder)
chain: B1 chain with E4S, G45E
B16: A20E (designed binder)
chain: B1 chain with A20E, G45E
B17: E91I (designed binder)
chain: B1 chain with G45E, E91I
B18: E72C (designed binder)
chain: B1 chain with G45E, E72C
B19: A67Y (designed binder)
chain: B1 chain with G45E, A67Y
B20: A51P (designed binder)
chain: B1 chain with G45E, A51P
B21: I98K (designed binder)
chain: B1 chain with G45E, I98K
B22: E7N (designed binder)
chain: B1 chain with E7N, G45E
B23: E78W (designed binder)
chain: B1 chain with G45E, E78W
B24: A63S (designed binder)
chain: B1 chain with G45E, A63S
B25: K100Q (designed binder)
chain: B1 chain with G45E, K100Q
B26: K68G (designed binder)
chain: B1 chain with G45E, K68G
B27: K100P (designed binder)
chain: B1 chain with G45E, K100P
B28: E4C (designed binder)
chain: B1 chain with E4C, G45E
B29: E86I (designed binder)
chain: B1 chain with G45E, E86I
B30: E60C (designed binder)
chain: B1 chain with G45E, E60C
B31: K48D (designed binder)
chain: B1 chain with G45E, K48D
B32: I87A (designed binder)
chain: B1 chain with G45E, I87A
B33: Q84L (designed binder)
chain: B1 chain with G45E, Q84L
B34: A55V (designed binder)
chain: B1 chain with G45E, A55V
B35: K100M (designed binder)
chain: B1 chain with G45E, K100M
B36: E62G (designed binder)
chain: B1 chain with G45E, E62G
B37: E103G (designed binder)
chain: B1 chain with G45E, E103G
B38: K16T (designed binder)
chain: B1 chain with K16T, G45E
B39: E19V (designed binder)
chain: B1 chain with E19V, G45E
B40: E22N (designed binder)
chain: B1 chain with E22N, G45E
B41: K107T (designed binder)
chain: B1 chain with G45E, K107T
B42: K52P (designed binder)
chain: B1 chain with G45E, K52P
B43: E54N (designed binder)
chain: B1 chain with G45E, E54N
B44: E78F (designed binder)
chain: B1 chain with G45E, E78F
B45: E22D (designed binder)
chain: B1 chain with E22D, G45E
B46: K23I (designed binder)
chain: B1 chain with K23I, G45E
B47: K16R (designed binder)
chain: B1 chain with K16R, G45E
B48: L28R (designed binder)
chain: B1 chain with L28R, G45E
B49: E14K (designed binder)
chain: B1 chain with E14K, G45E
B50: L25C (designed binder)
chain: B1 chain with L25C, G45E
B51: K73W (designed binder)
chain: B1 chain with G45E, K73W
B52: A46V (designed binder)
chain: B1 chain with G45E, A46V
B53: K11H (designed binder)
chain: B1 chain with K11H, G45E
B54: E34A (designed binder)
chain: B1 chain with E34A, G45E
B55: E14P (designed binder)
chain: B1 chain with E14P, G45E
B56: K88Q (designed binder)
chain: B1 chain with G45E, K88Q
B57: K71F (designed binder)
chain: B1 chain with G45E, K71F
B58: T97K (designed binder)
chain: B1 chain with G45E, T97K
B59: E19F (designed binder)
chain: B1 chain with E19F, G45E

Molecular target: T1, TNFR1 (Homo sapiens, UniProt P19438)
T1 chain: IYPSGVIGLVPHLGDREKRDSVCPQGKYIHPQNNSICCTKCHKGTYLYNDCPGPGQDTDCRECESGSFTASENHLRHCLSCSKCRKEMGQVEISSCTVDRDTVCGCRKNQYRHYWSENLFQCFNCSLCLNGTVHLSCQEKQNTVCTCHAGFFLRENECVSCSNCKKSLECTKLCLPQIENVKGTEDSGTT
Assay: yeast display SC50

Row | Binder | apparent Kd (screen)
1 | B1 | 2.05 nM
2 | B2 | 7.07 nM
3 | B3 | 0.718 nM
4 | B4 | 5.31 nM
5 | B5 | 1.86 nM
6 | B6 | 1.05 nM
7 | B7 | 1.69 nM
8 | B8 | 0.869 nM
9 | B9 | 1.86 nM
10 | B10 | 1.54 nM
11 | B11 | 1.54 nM
12 | B12 | 7.07 nM
13 | B13 | 0.405 nM
14 | B14 | 1.86 nM
15 | B15 | 0.539 nM
16 | B16 | 1.16 nM
17 | B17 | 7.78 nM
18 | B18 | 1.05 nM
19 | B19 | 22.2 nM
20 | B20 | 6.43 nM

Row | Binder | apparent Kd (screen)
21 | B21 | 4.83 nM
22 | B22 | 1.27 nM
23 | B23 | 2.73 nM
24 | B24 | 3.99 nM
25 | B25 | 0.539 nM
26 | B26 | 1.27 nM
27 | B27 | 3 nM
28 | B28 | 1.27 nM
29 | B29 | 1.69 nM
30 | B30 | 1.05 nM
31 | B31 | 0.49 nM
32 | B32 | 13.8 nM
33 | B33 | 2.48 nM
34 | B34 | 3 nM
35 | B35 | 1.05 nM
36 | B36 | 2.25 nM
37 | B37 | 0.539 nM
38 | B38 | 1.05 nM
39 | B39 | 0.446 nM
40 | B40 | 0.869 nM

Row | Binder | apparent Kd (screen)
41 | B41 | 0.869 nM
42 | B42 | 4.39 nM
43 | B43 | 12.5 nM
44 | B44 | 0.49 nM
45 | B45 | 0.49 nM
46 | B46 | 0.539 nM
47 | B47 | 1.4 nM
48 | B48 | 1.86 nM
49 | B49 | 3 nM
50 | B50 | 1.4 nM
51 | B51 | 15.2 nM
52 | B52 | 2.48 nM
53 | B53 | 0.956 nM
54 | B54 | 1.05 nM
55 | B55 | 11.4 nM
56 | B56 | 0.49 nM
57 | B57 | 2.48 nM
58 | B58 | 0.539 nM
59 | B59 | 0.446 nM
